Laboratory results from IntAct's records for PubMed 21807993.

B1: E4 ubiquitin-protein ligase UFD2 (Saccharomyces cerevisiae), P54860 (parent)
chain: MTAIEDILQITTDPSDTRGYSLLKSEEVPQGSTLGVDFIDTLLLYQLTENEKLDKPFEYLNDCFRRNQQQKRITKNKPNAESLHSTFQEIDRLVIGYGVVALQIENFCMNGAFINYITGIVSNVNSYTDFLSQIIQRAILEGTALDLLNAVFPTLLEYCNKHVSHFDLNESVIYNNVLTIFELFVTFKPIAEIFTKIDGFFADYSCKPQDFERKTILGPILSLSPIEAAVAIRNYGDNLLRSKQQTAMIHESLQAEHKVVIDRLFFIVDKLVRGSLNSRTDMISYFAHIANKNHLRRADHPPFKELSSNGFMSNITLLLVRFSQPFLDISYKKIDKIDANYFNNPSLFIDLSGETRLNSDFKEADAFYDKNRKTADSKPNFISDCFFLTLTYLHYGLGGTLSFEEKMGSEIKALKEEIEKVKKIAANHDVFARFITAQLSKMEKALKTTESLRFALQGFFAHRSLQLEVFDFICGASTFLIRVVDPEHEFPFKQIKLPLIPDQIGVENVDNADFLRAHAPVPFKYYPEFVVEGPVNYSLYISKYQTSPIFRNPRLGSFVEFTTMVLRCPELVSNPHLKGKLVQLLSVGAMPLTDNSPGFMMDIFEHDELVNKNLLYALLDFYVIVEKTGSSSQFYDKFNSRYSISIILEELYYKIPSYKNQLIWQSQNNADFFVRFVARMLNDLTFLLDEGLSNLAEVHNIQNELDNRARGAPPTREEEDKELQTRLASASRQAKSSCGLADKSMKLFEIYSKDIPAAFVTPEIVYRLASMLNYNLESLVGPKCGELKVKDPQSYSFNPKDLLKALTTVYINLSEQSEFISAVAKDERSFNRNLFVRAVDILGRKTGLASPEFIEKLLNFANKAEEQRKADEEEDLEYGDVPDEFLDPLMYTIMKDPVILPASKMNIDRSTIKAHLLSDSTDPFNRMPLKLEDVTPNEELRQKILCFKKQKKEEAKHKASE

Variants of: B1
Settings: with cdc48_yeast CDC48, P25694
Sequence of cdc48_yeast CDC48, P25694 (P25694 whole entry): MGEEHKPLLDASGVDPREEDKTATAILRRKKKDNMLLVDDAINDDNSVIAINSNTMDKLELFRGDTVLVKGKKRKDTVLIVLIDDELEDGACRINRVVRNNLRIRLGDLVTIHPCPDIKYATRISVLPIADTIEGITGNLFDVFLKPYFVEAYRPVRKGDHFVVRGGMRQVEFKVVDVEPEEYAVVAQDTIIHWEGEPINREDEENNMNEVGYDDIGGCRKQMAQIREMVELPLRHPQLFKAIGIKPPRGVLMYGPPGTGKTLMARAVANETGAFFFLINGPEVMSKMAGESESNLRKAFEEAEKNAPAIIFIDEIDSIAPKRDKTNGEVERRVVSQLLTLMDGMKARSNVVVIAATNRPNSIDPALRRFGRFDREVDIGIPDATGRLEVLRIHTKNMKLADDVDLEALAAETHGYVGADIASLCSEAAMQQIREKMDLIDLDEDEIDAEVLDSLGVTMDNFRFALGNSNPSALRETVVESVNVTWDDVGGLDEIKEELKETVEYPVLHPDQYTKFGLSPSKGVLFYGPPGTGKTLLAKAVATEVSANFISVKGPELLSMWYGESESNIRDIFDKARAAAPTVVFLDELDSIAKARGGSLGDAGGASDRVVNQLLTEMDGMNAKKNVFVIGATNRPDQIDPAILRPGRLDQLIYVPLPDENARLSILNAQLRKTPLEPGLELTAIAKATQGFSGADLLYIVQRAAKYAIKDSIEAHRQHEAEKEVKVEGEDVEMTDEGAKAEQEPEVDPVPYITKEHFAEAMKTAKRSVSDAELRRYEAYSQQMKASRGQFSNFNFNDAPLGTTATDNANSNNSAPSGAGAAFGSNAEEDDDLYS

Variant | effect of a mutation on the interaction
C385Y | disrupting interaction strength
G274D | disrupting interaction strength
